Among the data in PMC9769477 (2022) are Kd and koff values, retold here.

As usually defined, the Kd is a measure of binding affinity in units of concentration. Low values mean higher affinity, high ones lower affinity. What is called koff is a measure of how fast the partners let go of each other. High values mean a short-lived complex, low ones a long-lived complex.

In this assay the target is 9G1. Kind of assay: BLI. For orientation: BLI is a label-free optical method that tracks binding on a fibre tip over time.

B1: CVA16/SZ05 viral particles (complex)
chain 1: GDPIADMIDQTVNNQVNRSLTALQVLPTAANTEASSHRLGTGVVPALQAAETGASSNASDKNLIETRCVLNHHSTQETAIGNFFSRAGLVSIITMPTTGTQNTDGYVNWDIDLMGYAQLRRKCELFTYMRFDAEFTFVVAKPNGELVPQLLQYMYVPPGAPKPTSRDSFAWQTATNPSVFVKMTDPPAQVSVPFMSPASAYQWFYDGYPTFGEHLQANDLDYGQCPNNMMGTFSIRTVGTEKSPHSITLRVYMRIKHVRAWIPRPLRNQPYLFKTNPNYKGNDIKCTSTSRDKITTL
chain 2: SPSAEACGYSDRVAQLTIGNSTITTQEAANIVIAYGEWPEYCPDTDATAVDKPTRPDVSVNRFFTLDTKSWAKDSKGWYWKFPDVLTEVGVFGQNAQFHYLYRSGFCVHVQCNASKFHQGALLVAVLPEYVLGTIAGGTGNENSHPPYATTQPGQVGAVLTHPYVLDAGIPLSQLTVCPHQWINLRTNNCATIIVPYMNTVPFDSALNHCNFGLLVIPVVPLDFNAGATSEIPITVTIAPMCAEFAGLRQAVKQ
chain 3: GIPTELKPGTNQFLTTDDGVSAPILPGFHPTPPIHIPGEVRNLLEICRVETILEVNNLKTNETTPMQRLCFPVSVQSKTGELCAAFRADPGRDGPWQSTILGQLCRYYTQWSGSLEVTFMFAGSFMATGKMLIAYTPPGGSVPADRITAMLGTHVIWDFGLQSSVTLVVPWISNTHYRAHARAGYFDYYTTGIITIWYQTNYVVPIGAPTTAYIVALAAAQDNFTMKLCKDTEDIEQTANIQ
chain 4: GSQVSTQRSGSHENSNSASEGSTINYTTINYYKDAYAASAGRQDMSQDPKRFTDPVMDVIHEMAPPLK
modifications: biotin (EZ-Link Sulfo-NHS-LC-LC-Biotin labelling of the particles before BLI; sites not stated) | biotin (EZ-Link Sulfo-NHS-LC-LC-Biotin labelling of the particles before BLI; sites not stated) | biotin (EZ-Link Sulfo-NHS-LC-LC-Biotin labelling of the particles before BLI; sites not stated) | biotin (EZ-Link Sulfo-NHS-LC-LC-Biotin labelling of the particles before BLI; sites not stated)
Molecule B1 had a Kd of 0.46 nM and a koff of 0.000631 s⁻¹.
